Assay results taken from PMC4787775, “Molecular basis for the substrate specificity and catalytic mechanism of thymine-7-hydroxylase in fungi” (Nucleic Acids Research, 2015).
One block for each molecule: values may come before it.

Experiments:
[1] = biological target: T1, NcT7H (thymine-7-hydroxylase) (Neurospora crassa, UniProt Q7RYZ9); test: isothermal titration calorimetry; assay type: binding
T1 construct: gene NCU06416; full length (residues 1-333), C-terminal His6-tag, pET-28a, expressed in E. coli BL21(DE3); Ni-NTA and gel filtration, tag removal not mentioned
Text: isothermal titration calorimetry on NcT7H (thymine-7-hydroxylase)

[2] = substrate: O=c1[nH]cc(CO)c(=O)[nH]1; test: purified protein; details: 1 mM α-KG, 0.2 mM (NH4)2Fe(SO4)2, 0.2 mM ascorbic acid, 100 mM Hepes pH 7.5, 25 °C
[3] = substrate: Cc1c[nH]c(=O)[nH]c1=O; test: purified protein; assay type: biochemical, Neurospora crassa; details: 1 mM α-KG, 0.2 mM (NH4)2Fe(SO4)2, 0.2 mM ascorbic acid, 100 mM Hepes pH 7.5, 25 °C
[4] = substrate: O=Cc1c[nH]c(=O)[nH]c1=O; test: purified protein; assay type: biochemical, Neurospora crassa; details: 1 mM α-KG, 0.2 mM (NH4)2Fe(SO4)2, 0.2 mM ascorbic acid, 100 mM Hepes pH 7.5, 25 °C

Kd [1]: 32 ± 5.24 µM
Molecule: Cc1c[nH]c(=O)[nH]c1=O [T]

Kd [1]: 34.4 ± 6.63 µM
Molecule: O=C(O)CCC(=O)C(=O)O [α-KG]

Kd [1]: 5.35 ± 1.26 µM
Molecule: O=C(O)CNC(=O)C(=O)O [NOG]

Kd [1]: 30.5 ± 5.59 µM
Molecule: O=c1[nH]cc(CO)c(=O)[nH]1 [5hmU]

Kd [1]: 108 ± 13 µM
Molecule: O=Cc1c[nH]c(=O)[nH]c1=O [5fU]

B1: NcT7H (thymine-7-hydroxylase) (Neurospora crassa OR74A; R286A) (protein)
chain: MEKAAVNEDGLVIPLIDFSKFLEGDETLKLETAKAILHGFQTAGFIYLKNIPIQPDFREHVFNTSAKFFKLPKEKKLEVGWTTPEANRGYSAPGREKVTQLTDPAEIEKIRSAAPDIKESYEIGREDEPGHPNPWPAEQDDLVGFKSTMNNFFDQCKALHIEVMRAIAVGMGIDANYFDSFVDVGDNILRLLHYPAVKSEVFKINPGQVRAGEHTDYGSITLLFQDSRGGLQVKSPNGQFIDATPIENTVVVNAGDLLARWSNDTIKSTVHRVVEPPKQEDVHPPAYSIAYFCNPNHKSYIEAIPGTYAAESERKYEGINSGKYLVQRLAATY
notes: full length (residues 1-333), C-terminal His6-tag, pET-28a, expressed in E. coli BL21(DE3); Ni-NTA and gel filtration, tag removal not mentioned
Km [2]: 950 ± 114 µM | kcat [2]: 0.141 s⁻¹ | kcat/Km [2]: 150 M⁻¹ s⁻¹ | Km [3]: 649 ± 74.1 µM | kcat [3]: 0.405 ± 0.0215 s⁻¹ | kcat/Km [3]: 617 M⁻¹ s⁻¹

B2: NcT7H (thymine-7-hydroxylase) (Neurospora crassa OR74A; Y217A) (protein)
chain: MEKAAVNEDGLVIPLIDFSKFLEGDETLKLETAKAILHGFQTAGFIYLKNIPIQPDFREHVFNTSAKFFKLPKEKKLEVGWTTPEANRGYSAPGREKVTQLTDPAEIEKIRSAAPDIKESYEIGREDEPGHPNPWPAEQDDLVGFKSTMNNFFDQCKALHIEVMRAIAVGMGIDANYFDSFVDVGDNILRLLHYPAVKSEVFKINPGQVRAGEHTDAGSITLLFQDSRGGLQVKSPNGQFIDATPIENTVVVNAGDLLARWSNDTIKSTVHRVVEPPKQEDVHPPRYSIAYFCNPNHKSYIEAIPGTYAAESERKYEGINSGKYLVQRLAATY
notes: as for B1
Km [3]: 1500 ± 332 µM | kcat [3]: 0.257 ± 0.0355 s⁻¹ | kcat/Km [3]: 167 M⁻¹ s⁻¹

B3: NcT7H (thymine-7-hydroxylase) (Neurospora crassa OR74A) (protein)
chain: MEKAAVNEDGLVIPLIDFSKFLEGDETLKLETAKAILHGFQTAGFIYLKNIPIQPDFREHVFNTSAKFFKLPKEKKLEVGWTTPEANRGYSAPGREKVTQLTDPAEIEKIRSAAPDIKESYEIGREDEPGHPNPWPAEQDDLVGFKSTMNNFFDQCKALHIEVMRAIAVGMGIDANYFDSFVDVGDNILRLLHYPAVKSEVFKINPGQVRAGEHTDYGSITLLFQDSRGGLQVKSPNGQFIDATPIENTVVVNAGDLLARWSNDTIKSTVHRVVEPPKQEDVHPPRYSIAYFCNPNHKSYIEAIPGTYAAESERKYEGINSGKYLVQRLAATY
notes: as for B1
Km [2]: 178 ± 16.4 µM | kcat [2]: 0.325 s⁻¹ | kcat/Km [2]: 1830 M⁻¹ s⁻¹ | Km [4]: 253 ± 32.2 µM | kcat [4]: 0.765 ± 0.0357 s⁻¹ | kcat/Km [4]: 3020 M⁻¹ s⁻¹ | Km [3]: 141 ± 13.4 µM | kcat [3]: 0.417 ± 0.0123 s⁻¹ | kcat/Km [3]: 2950 M⁻¹ s⁻¹

B4: NcT7H (thymine-7-hydroxylase) (Neurospora crassa OR74A; N87A) (protein)
chain: MEKAAVNEDGLVIPLIDFSKFLEGDETLKLETAKAILHGFQTAGFIYLKNIPIQPDFREHVFNTSAKFFKLPKEKKLEVGWTTPEAARGYSAPGREKVTQLTDPAEIEKIRSAAPDIKESYEIGREDEPGHPNPWPAEQDDLVGFKSTMNNFFDQCKALHIEVMRAIAVGMGIDANYFDSFVDVGDNILRLLHYPAVKSEVFKINPGQVRAGEHTDYGSITLLFQDSRGGLQVKSPNGQFIDATPIENTVVVNAGDLLARWSNDTIKSTVHRVVEPPKQEDVHPPRYSIAYFCNPNHKSYIEAIPGTYAAESERKYEGINSGKYLVQRLAATY
notes: as for B1
Km [2]: 1065 ± 156 µM | kcat [2]: 0.0962 s⁻¹ | kcat/Km [2]: 83.3 M⁻¹ s⁻¹ | Km [3]: 638 ± 128 µM | kcat [3]: 0.23 ± 0.022 s⁻¹ | kcat/Km [3]: 367 M⁻¹ s⁻¹

B5: NcT7H (thymine-7-hydroxylase) (Neurospora crassa OR74A; R190K) (protein)
chain: MEKAAVNEDGLVIPLIDFSKFLEGDETLKLETAKAILHGFQTAGFIYLKNIPIQPDFREHVFNTSAKFFKLPKEKKLEVGWTTPEANRGYSAPGREKVTQLTDPAEIEKIRSAAPDIKESYEIGREDEPGHPNPWPAEQDDLVGFKSTMNNFFDQCKALHIEVMRAIAVGMGIDANYFDSFVDVGDNILKLLHYPAVKSEVFKINPGQVRAGEHTDYGSITLLFQDSRGGLQVKSPNGQFIDATPIENTVVVNAGDLLARWSNDTIKSTVHRVVEPPKQEDVHPPRYSIAYFCNPNHKSYIEAIPGTYAAESERKYEGINSGKYLVQRLAATY
notes: as for B1
Km [2]: 1016 ± 200 µM | kcat [2]: 0.0353 s⁻¹ | kcat/Km [2]: 33.3 M⁻¹ s⁻¹ | Km [3]: 542 ± 64.7 µM | kcat [3]: 0.055 ± 0.003 s⁻¹ | kcat/Km [3]: 100 M⁻¹ s⁻¹

B6: NcT7H (thymine-7-hydroxylase) (Neurospora crassa OR74A; Y217F) (protein)
chain: MEKAAVNEDGLVIPLIDFSKFLEGDETLKLETAKAILHGFQTAGFIYLKNIPIQPDFREHVFNTSAKFFKLPKEKKLEVGWTTPEANRGYSAPGREKVTQLTDPAEIEKIRSAAPDIKESYEIGREDEPGHPNPWPAEQDDLVGFKSTMNNFFDQCKALHIEVMRAIAVGMGIDANYFDSFVDVGDNILRLLHYPAVKSEVFKINPGQVRAGEHTDFGSITLLFQDSRGGLQVKSPNGQFIDATPIENTVVVNAGDLLARWSNDTIKSTVHRVVEPPKQEDVHPPRYSIAYFCNPNHKSYIEAIPGTYAAESERKYEGINSGKYLVQRLAATY
notes: as for B1
Km [2]: 247 ± 35.2 µM | kcat [2]: 0.553 s⁻¹ | kcat/Km [2]: 2230 M⁻¹ s⁻¹ | Km [4]: 718 ± 213 µM | kcat [4]: 0.237 ± 0.0352 s⁻¹ | kcat/Km [4]: 333 M⁻¹ s⁻¹ | Km [3]: 128 ± 18.5 µM | kcat [3]: 0.542 ± 0.0228 s⁻¹ | kcat/Km [3]: 4230 M⁻¹ s⁻¹
